Results from patent US20140289906A1, “Compositions Having Dicamba Decarboxylase Activity and Methods of Use” (priority 2013, published 2014).
Where a chain is given by its changes, count along the chain named. Names and notes keep the numbering of the source.

Columns and labels:
[1] = 14C assay: 14CO2 capture from [14C]-carboxyl-labeled dicamba with IPTG-induced recombinant E. coli cells; conditions: dicamba decarboxylation activity
[2] = 14C assay: 14CO2 capture from [14C]-carboxyl-labeled dicamba with purified protein; format: biochemical
[3] = Dicamba decarboxylation activity of computationally designed protein variants and parents (Tables 4, 5); conditions: native proteins and designed variants; assay not specified
[4] = GC/MS detection of 2,5-dichloro phenol (2,5-DCP); kinetic determination; format: biochemical; conditions: purified protein, dicamba
Method: The decarboxylated and demethylated product of dicamba, 2,5-dichloro phenol or 2,5-DCP (FIG. 1E) is measured using a GC/MS analytical procedure with either liquid injection after liquid/liquid extraction using toluene as the extraction solvent or gas injection using head space method. The head space sample analysis is carried out on an Agilent GC/MS system with a 6890A GC, a 5973N MSD and a CTC CombiPAL auto-sampler or with a 7890A GC, a 5975C MSD and an Agilent GC Sampler 80 auto-sampler with Phenomenex ZB-MultiResidue-1 column (30 m length, 0.25 mm diameter, 0.25 um film) or equivalent. GC/MS parameters are: GC inlet temperature, 200° C.; Carry gas, helium in constant flow mode (1.2 mL/min); Oven temperature program, 70° C. for 1 min and then ramp to 275° C. at 40° C./min. […] The reaction vial is transferred to a agitator for incubation at 90° C. for 4 min at 500 rpm. With a syringe preheated at 110° C., 1000 uL of head space is injected with sample fill speed at 100 uL/sec. A 2-mm diameter liner is used in sample inlet. The MS data acquisition is done in SIM (selected ion monitoring) mode. The positive ion at M/Z 162 for the molecular ion of 2,-5-DCP is monitored at retention time of 4.06 min. Solvent delay for MS acquisition is set at 3 min. GC/MS parameters for liquid sample analysis are the same as those for head space analysis, except that the volume of liquid injection is 1 uL.

[5] = LC-MS/MS detection of 4-chloro-3-methoxy phenol; format: biochemical; conditions: purified protein, dicamba
Method: The decarboxylated and chloro hydrolyzed product, 4-chloro-3-methoxy phenol (FIG. 1D), is measured using a LC-MS/MS analytical procedure. […] 10 ul is removed from the reaction mixture and mixed with 90 ul pre-chilled methanol followed by centrifugation at 14,000 rpm for 15 min at 4° C. 10 ul of the supernatant is then transferred into 170 ul ddH2O to achieve 5% methanol solution for injection. 50 ul of the prepared sample is injected into a 4000 Q Trap LC-MS/MS system for sample analysis. LC-MS/MS parameters are: Mobile Phase A, 2 mM ammonium acetate in water; Mobile Phase B, 2 mM ammonium acetate in methanol; Column, Aquasil, 100×2.1 mm, 3 μm, C18 column; Flow Rate, 0.6 ml/min. The MS/MS fragment 157/142 which is common to 4-chloro-3-methoxy phenol, 2-chloro-5-methoxy phenol, and 3-chloro-5-methoxy phenol is monitored at a retention time of 2.88 min.

[6] = Saturation mutagenesis of SEQ ID NO:109: dicamba decarboxylation activity of point mutants (Table 7)
[7] = dicamba decarboxylation activity of point mutants of SEQ ID NO: 109 from NNK saturation mutagenesis, 0.7-fold used as cut-off
[8] = point mutant of SEQ ID NO:109, dicamba decarboxylation activity relative to the unchanged template

B1: 110 (protein)
chain: MAQGKVALEEHFAIPETLQDSMGFVPGDYWKELMHRLLDIQDTRLKLMDAHGIETMILSLNAPAVQAIPDRRKAIEIARRANDVLAEECAKRPDRFLAFAALPLQDPDAATEELQRCVNDLGFVGALVNGFSQEGDGQTPLYYDLPQYRPFWGEVEKLDVPFYLHPRNPLPQDSRIYDGHPWLLGPTWAFAQETAVHALRLMASGLFDEHPRLNIILGHMGEGLPYMMWRIDHRMAWVKLPPRYPAKRRFMDYFNENFHITTSGNFRTQTLIDAILEIGADRILFSTDWPFENIDHASDWFNATSIAEADRVKIGRTNARRLFKLDGA
modifications: Dicamba decarboxylase variant clone DC.4.111
Q: What does the source list for B1?
A: Enzymatic Detection level [1]: High; CO2 product detected [2]: detected; dicamba decarboxylase activity (statement in the description) [3]: displays an increase in dicamba decarboxylase activity; 2,5-DCP product detected [4]: detected; 4-chloro-3-methoxy phenol product detected [5]: detected

B2: G27S: point mutation of SEQ ID NO:109 (protein)
chain: B1 chain with M22A, G27S, M34Q, M235V
modifications: Dicamba decarboxylase variant clone DC.4.032
Q: What does the source list for B2?
A: Average Activity (Fold of SEQ ID NO: 109) [6, 7]: 2.2 Fold of SEQ ID NO: 109; Average Activity (Fold of SEQ ID NO: 109) [6, 8]: 2.2 Fold of SEQ ID NO: 109

B3: G27T: point mutation of SEQ ID NO:109 (protein)
chain: B1 chain with M22A, G27T, M34Q, M235V
modifications: Dicamba decarboxylase variant clone DC.4.032
Q: Which “Average Activity (Fold of SEQ ID NO: 109)” value [6, 7] does the source give for B3 here?
A: 2.0 Fold of SEQ ID NO: 109

B4: A328D: point mutation of SEQ ID NO:109 (protein)
chain: B1 chain with M22A, M34Q, M235V, A328D
modifications: Dicamba decarboxylase variant clone DC.4.032
Q: Which results are given for B4?
A: Average Activity (Fold of SEQ ID NO: 109) [6, 7]: 2.3 Fold of SEQ ID NO: 109; Average Activity (Fold of SEQ ID NO: 109) [6, 8]: 2.3 Fold of SEQ ID NO: 109

B5: G327Q: point mutation of SEQ ID NO:109 (protein)
chain: B1 chain with M22A, M34Q, M235V, G327Q
modifications: Dicamba decarboxylase variant clone DC.4.032
Q: With B5 as the molecule, how does the “Average Activity (Fold of SEQ ID NO: 109)” value [6, 7] read?
A: 2.8 Fold of SEQ ID NO: 109

Q: And the “Average Activity (Fold of SEQ ID NO: 109)” value [6, 8]?
A: 2.8 Fold of SEQ ID NO: 109

B6: D42S: point mutation of SEQ ID NO:109 (protein)
chain: B1 chain with M22A, M34Q, D42S, M235V
modifications: Dicamba decarboxylase variant clone DC.4.032
Q: For B6, which “Average Activity (Fold of SEQ ID NO: 109)” value [6, 7] is on record?
A: 2.0 Fold of SEQ ID NO: 109

B7: 113 (protein)
chain: B1 chain with M22A, W30L, M34F, M235V
modifications: Dicamba decarboxylase variant clone DC.4.114
Q: With B7 as the molecule, how does the “Enzymatic Detection level” value [1] read?
A: High

Q: And the CO2 product detected [2]?
A: detected

Q: What about the “dicamba decarboxylase activity (statement in the description)” value [3] of the same molecule?
A: displays an increase in dicamba decarboxylase activity

Q: And the “2,5-DCP product detected” value [4]?
A: detected

Q: And the “4-chloro-3-methoxy phenol product detected” value [5]?
A: detected

B8: L38I: point mutation of SEQ ID NO:109 (protein)
chain: B1 chain with M22A, M34Q, L38I, M235V
modifications: Dicamba decarboxylase variant clone DC.4.032
Q: For B8, which “Average Activity (Fold of SEQ ID NO: 109)” value [6, 7] is on record?
A: 2.0 Fold of SEQ ID NO: 109

Q: And the “Average Activity (Fold of SEQ ID NO: 109)” value [6, 8]?
A: 2.0 Fold of SEQ ID NO: 109

B9: 112 (protein)
chain: B1 chain with M22A, M34V, M235V
modifications: Dicamba decarboxylase variant clone DC.4.113
Q: Which “Enzymatic Detection level” value [1] does the source give for B9 here?
A: High

Q: What about the CO2 product detected [2] of the same molecule?
A: detected

Q: What about the “dicamba decarboxylase activity (statement in the description)” value [3] of the same molecule?
A: displays an increase in dicamba decarboxylase activity

Q: And the “2,5-DCP product detected” value [4]?
A: detected

Q: What about the “4-chloro-3-methoxy phenol product detected” value [5] of the same molecule?
A: detected

B10: G27A: point mutation of SEQ ID NO:109 (protein)
chain: B1 chain with M22A, G27A, M34Q, M235V
modifications: Dicamba decarboxylase variant clone DC.4.032
Q: For B10, which “Average Activity (Fold of SEQ ID NO: 109)” value [6, 7] is on record?
A: 2.0 Fold of SEQ ID NO: 109

B11: A328R: point mutation of SEQ ID NO:109 (protein)
chain: B1 chain with M22A, M34Q, M235V, A328R
modifications: Dicamba decarboxylase variant clone DC.4.032
Q: For B11, which “Average Activity (Fold of SEQ ID NO: 109)” value [6, 7] is on record?
A: 3.0 Fold of SEQ ID NO: 109

B12: D42A: point mutation of SEQ ID NO:109 (protein)
chain: B1 chain with M22A, M34Q, D42A, M235V
modifications: Dicamba decarboxylase variant clone DC.4.032
Q: Which “Average Activity (Fold of SEQ ID NO: 109)” value [6, 7] does the source give for B12 here?
A: 2.0 Fold of SEQ ID NO: 109

B13: D42M: point mutation of SEQ ID NO:109 (protein)
chain: B1 chain with M22A, M34Q, D42M, M235V
modifications: Dicamba decarboxylase variant clone DC.4.032
Q: Which results are given for B13?
A: Average Activity (Fold of SEQ ID NO: 109) [6, 7]: 2.4 Fold of SEQ ID NO: 109; Average Activity (Fold of SEQ ID NO: 109) [6, 8]: 2.4 Fold of SEQ ID NO: 109

B14: 111 (protein)
chain: B1 chain with V238I
modifications: Dicamba decarboxylase variant clone DC.4.112
Q: What does the source list for B14?
A: Enzymatic Detection level [1]: High; CO2 product detected [2]: detected; dicamba decarboxylase activity (statement in the description) [3]: displays an increase in dicamba decarboxylase activity; 2,5-DCP product detected [4]: detected; 4-chloro-3-methoxy phenol product detected [5]: detected

B15: G52E: point mutation of SEQ ID NO:109 (protein)
chain: B1 chain with M22A, M34Q, G52E, M235V
modifications: Dicamba decarboxylase variant clone DC.4.032
Q: Which “Average Activity (Fold of SEQ ID NO: 109)” value [6, 7] does the source give for B15 here?
A: 3.1 Fold of SEQ ID NO: 109

Q: What about the “Average Activity (Fold of SEQ ID NO: 109)” value [6, 8] of the same molecule?
A: 3.1 Fold of SEQ ID NO: 109
